This test deals with T1, human MELK protein (Maternal Embryonic Leucine zipper Kinase), full-length (human, UniProt Q14680 1-651).
T1 construct: It was detected in formalin-fixed paraffin sections (IHC) or in RIPA lysates after SDS-PAGE (western blot); MELK is an intracellular kinase, so 'on cells' here means in cells or sections; also called full-length MELK protein; endogenous MELK protein
The experiment in a line: immunohistochemical staining of formalin-fixed paraffin sections, MELK/293T vs Mock/293T. Here is the method: For antigen activation, sections immersed in the antigen-activating solution, pH 9 (Nichirei Biosciences Inc.) were incubated at 125° C. for 30 seconds. After incubation, these were left to stand for 20 minutes at room temperature, and washed for 5 minutes under running water. After immersing them in 3.0% hydrogen peroxide water for 10 minutes to perform blocking of endogenous peroxidase, they were washed with Wash Buffer (TBS-T (Takara Bio)) three times for 5 minutes. Furthermore, with the aim of blocking non-specific reactions, a suitable amount of Protein Block Solution (Dako) was dropped onto the sections and then left to stand for 10 minutes. The primary antibodies (OTSMAb01, MELK(N449)pAb, MELK(HPA017214)pAb) were respectively dropped in suitable amounts within a humid box, left to stand for 60 minutes, and then washed with the Wash Buffer three times for 5 minutes. Histofine Simple Stain MAX PO (Nichirei Biosciences Inc.) was dropped in suitable amounts as the secondary antibody in a humid box, and left to stand for 30 minutes. These were then washed with the Wash Buffer three times for 5 minutes. The chromogenic reaction was done using the DAB substrate solution (Nichirei Biosciences Inc.). The slide sections were immersed for 20 seconds in haematoxylin (Dako), and washed under running water. […]

T1 sequence (Q14680 whole entry): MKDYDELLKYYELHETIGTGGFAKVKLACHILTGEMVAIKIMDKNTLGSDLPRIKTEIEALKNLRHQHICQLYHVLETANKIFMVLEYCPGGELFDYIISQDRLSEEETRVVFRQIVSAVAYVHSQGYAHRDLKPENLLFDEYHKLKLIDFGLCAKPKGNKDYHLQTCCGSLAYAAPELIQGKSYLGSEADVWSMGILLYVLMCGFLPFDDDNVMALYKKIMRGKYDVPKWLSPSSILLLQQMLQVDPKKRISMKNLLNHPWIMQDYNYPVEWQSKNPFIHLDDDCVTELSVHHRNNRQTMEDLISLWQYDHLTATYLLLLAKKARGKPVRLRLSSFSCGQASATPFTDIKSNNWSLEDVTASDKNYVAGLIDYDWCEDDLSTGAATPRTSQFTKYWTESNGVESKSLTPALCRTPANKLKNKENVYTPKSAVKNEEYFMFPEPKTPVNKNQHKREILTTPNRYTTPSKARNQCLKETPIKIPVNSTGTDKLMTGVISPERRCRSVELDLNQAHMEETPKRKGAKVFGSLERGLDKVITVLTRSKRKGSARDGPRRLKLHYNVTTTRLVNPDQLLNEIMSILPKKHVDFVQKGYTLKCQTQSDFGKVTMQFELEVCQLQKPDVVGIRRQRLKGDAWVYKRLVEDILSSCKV

B1: anti-MELK mouse monoclonal antibody clone OTSMAb01 (antibody, V domains shown)
VH: EVQLQQSGAELVRPGALVKLSCKASGFNIKDYYMHWVKQRPEQGLEWIGWIDPENGNTIYDPKFQGKASVTADTSSNTAYLQLSSLTSEDTAVYYCTSHHYSAMDYWGQGTSVTVSS
VL: DVVMTQTPLSLPVSLRDQASISCRSSQSLVHSNGNTYLHWYLQKPGQSPKLLIYKVSNRFSGVPDRFSGSGSGTDFTLIISRVEAEDLGVYFCSQSTYVPLTFGAGTKLELKR
notes: Mouse monoclonal antibody from a hybridoma (Balb/c splenocytes x SP2/0), purified from culture solution on a Protein A column; also called anti-MELK antibody (OTSMAb01); hybridoma clone OTSMAb01
As to B1, the binding result was “binds”.

The record behind these values is patent publication US20190185575A1 (ONCOTHERAPY SCIENCE, published 2019).
